{"source": "patent US8969060B2", "about": "“Modified glucose dehydrogenase” (Ikeda Food Research Co., Ltd., priority 2011, dated 2015)", "note": "Where “and” joins values, the source holds several entries; their conditions need not be identical. Equal values may be shown once."}
{"experiment": "Relative enzymatic activity of GLD (DCIP/1-m-PMS, plate reader, yeast culture supernatant) with 1,10-phenanthroline present", "type": "biochemical", "details": "random-mutation mutants, sample value with inhibitor at 1 mM / blank value, inhibitor not named in Table 1", "protocol": "The susceptibility defined in the present specification is evaluated in terms of a relative activity that is determined in a system wherein the inhibitor coexists or not. The relative activity is derived from a relative value (%) of an enzymatic activity (a sample value) obtained with the addition of the inhibitor in the determination of the enzymatic activity described in the present specification as compared with an enzymatic activity (a blank value) as “100%” obtained without the addition of the inhibitor in the same determination. Thus, the higher the relative activity is, the less the susceptibility to the inhibitor is (or the more the susceptibility to the inhibitor is reduced), vice versa.\nThe enzymatic activity is determined in the following manner in Examples 3 and 6 wherein a plate reader (Japan Molecular Device Corporation, SpectraMax Plus384) is used. Thus, culture supernatant that had been diluted in advance with an appropriate magnification is added to a 96-well microplate with an amount of 100 μl per well. A reagent for the determination of the enzymatic activity comprising phosphate buffer (pH 7.0), 1.0 M D-glucose, 3 mM DCIP, 3 mM 1-m-PMS and methanol with a volume ratio of 0.1:1:0.14:0.2:0.06 is added to the 96-well microplate with an amount of 100 μl per well, and a change in the absorbance of DCIP at 600 nm (ΔABS/min) is then determined. The enzymatic activity can be calculated by conversion in proportion to a change in the absorbance of an enzyme solution for which the enzymatic activity has already been known by the above-mentioned activity determination procedure using the spectrophotometer.\nIn the following examples, a value of the enzymatic activity determined by the spectrometer or plate reader using the above reagent composition is considered as a blank value. On the other hand, a sample value is determined using a methanol solution comprising the inhibitor such as 1,10-phenanthroline or proflavin hydrochloride at a final concentration of 1 mM instead of the methanol. Enzymatic activity (unit/mL)=(−ΔABS/16.3)×3.0/0.05×(Dilution ratio of enzyme) [Equation 1]\nInto each well of a 96-well microplate (manufactured by Nunc, Inc.), a YPD medium containing 125 μL of 1.0% (w/v) yeast extract (manufactured by BD), 2.0% (w/v) tryptone (manufactured by BD), 2.0% (w/v) glucose (manufactured by Wako Pure Chemical Industries, Ltd.) was dispensed, and the transformant colonies obtained in Example 2 were inoculated thereinto one by one.\nAfter shaking culture at 30° C. and 1,000 rpm for 24 hours, the culture mixture was centrifuged and the supernatant was collected.\nAccording to the above-mentioned method for the determination of enzymatic activity, a blank value and a sample value were determined using a plate reader, and the relative activity (%) was obtained by dividing the sample value by the blank value."}
{"molecule": "N287D + D343E + K494E: modified GLD: SEQ ID NO: 1 with substitutions N287D, D343E, K494E (protein, listed as Aspergillus terreus, SIGNAL (1)..(19)) MLGKLSFLSALSLAVAAPLSNSTSAKYDYIVIGGGTSGLAVANRLSEDPNVNVLILEAGGSVWNNPNVTNVDGYGLAFGSDIDWQYQSVNQPYGGNLSQVLRAGKALGGTSTINGMAYTRAEDVQIDAWETIGNTGWTWKNLFPYYRKSENFTVPTKSQTSLGASYEAGAHGHEGPLDVAFTQIESNNLTTYLNRTFQGMGLPWTEDVNGGKMRGFNLYPSTVNLEEYVREDAARAYYWPYKSRPNLHVLLNTFANRIVWDGEAHDGHITASGVEITSRNGTVRVIDAEKEVIVSAGALKSPAILELSGIGNPSVLDKHNIPVKVNLPTVGENLQDQVNSHMEASGNTSISGTKAVSYPDVYDVFGDEAESVAKQIRANLKQYAADTAKANGNIMKAADLERLFEVQYDLIFKGRVPIAEVLNYPGSATSVFAEFWALLPFARGSVHIGSSNPAEFPVINPNYFMLDWDAKSYVAVAKYIRRSFESYPLSSIVEESTPGYDVIPRNASEQSWKEWVFDKNYRSNFHPVGTAAMMPREIGGVVDERLNVYGTTNVRVVDASVLPFQVCGHLVSTLYAVAERAADLIKADAGRR", "Relative Activity": "52.2%"}
{"molecule": "D343N + S490C: modified GLD: SEQ ID NO: 1 with substitutions D343N, S490C (protein, listed as Aspergillus terreus, SIGNAL (1)..(19)) MLGKLSFLSALSLAVAAPLSNSTSAKYDYIVIGGGTSGLAVANRLSEDPNVNVLILEAGGSVWNNPNVTNVDGYGLAFGSDIDWQYQSVNQPYGGNLSQVLRAGKALGGTSTINGMAYTRAEDVQIDAWETIGNTGWTWKNLFPYYRKSENFTVPTKSQTSLGASYEAGAHGHEGPLDVAFTQIESNNLTTYLNRTFQGMGLPWTEDVNGGKMRGFNLYPSTVNLEEYVREDAARAYYWPYKSRPNLHVLLNTFANRIVWDGEAHDGHITASGVEITSRNGTVRVINAEKEVIVSAGALKSPAILELSGIGNPSVLDKHNIPVKVNLPTVGENLQDQVNSHMNASGNTSISGTKAVSYPDVYDVFGDEAESVAKQIRANLKQYAADTAKANGNIMKAADLERLFEVQYDLIFKGRVPIAEVLNYPGSATSVFAEFWALLPFARGSVHIGSSNPAEFPVINPNYFMLDWDAKSYVAVAKYIRRSFESYPLCSIVKESTPGYDVIPRNASEQSWKEWVFDKNYRSNFHPVGTAAMMPREIGGVVDERLNVYGTTNVRVVDASVLPFQVCGHLVSTLYAVAERAADLIKADAGRR", "Relative Activity": "61.8% and 71.1%"}
{"molecule": "D343E + L562H: modified GLD: SEQ ID NO: 1 with substitutions D343E, L562H (protein, listed as Aspergillus terreus, SIGNAL (1)..(19)) MLGKLSFLSALSLAVAAPLSNSTSAKYDYIVIGGGTSGLAVANRLSEDPNVNVLILEAGGSVWNNPNVTNVDGYGLAFGSDIDWQYQSVNQPYGGNLSQVLRAGKALGGTSTINGMAYTRAEDVQIDAWETIGNTGWTWKNLFPYYRKSENFTVPTKSQTSLGASYEAGAHGHEGPLDVAFTQIESNNLTTYLNRTFQGMGLPWTEDVNGGKMRGFNLYPSTVNLEEYVREDAARAYYWPYKSRPNLHVLLNTFANRIVWDGEAHDGHITASGVEITSRNGTVRVINAEKEVIVSAGALKSPAILELSGIGNPSVLDKHNIPVKVNLPTVGENLQDQVNSHMEASGNTSISGTKAVSYPDVYDVFGDEAESVAKQIRANLKQYAADTAKANGNIMKAADLERLFEVQYDLIFKGRVPIAEVLNYPGSATSVFAEFWALLPFARGSVHIGSSNPAEFPVINPNYFMLDWDAKSYVAVAKYIRRSFESYPLSSIVKESTPGYDVIPRNASEQSWKEWVFDKNYRSNFHPVGTAAMMPREIGGVVDERLNVYGTTNVRVVDASVHPFQVCGHLVSTLYAVAERAADLIKADAGRR", "Relative Activity": "51.8%"}
{"molecule": "D343N: modified GLD: SEQ ID NO: 1 with substitution D343N (protein, listed as Aspergillus terreus, SIGNAL (1)..(19)) MLGKLSFLSALSLAVAAPLSNSTSAKYDYIVIGGGTSGLAVANRLSEDPNVNVLILEAGGSVWNNPNVTNVDGYGLAFGSDIDWQYQSVNQPYGGNLSQVLRAGKALGGTSTINGMAYTRAEDVQIDAWETIGNTGWTWKNLFPYYRKSENFTVPTKSQTSLGASYEAGAHGHEGPLDVAFTQIESNNLTTYLNRTFQGMGLPWTEDVNGGKMRGFNLYPSTVNLEEYVREDAARAYYWPYKSRPNLHVLLNTFANRIVWDGEAHDGHITASGVEITSRNGTVRVINAEKEVIVSAGALKSPAILELSGIGNPSVLDKHNIPVKVNLPTVGENLQDQVNSHMNASGNTSISGTKAVSYPDVYDVFGDEAESVAKQIRANLKQYAADTAKANGNIMKAADLERLFEVQYDLIFKGRVPIAEVLNYPGSATSVFAEFWALLPFARGSVHIGSSNPAEFPVINPNYFMLDWDAKSYVAVAKYIRRSFESYPLSSIVKESTPGYDVIPRNASEQSWKEWVFDKNYRSNFHPVGTAAMMPREIGGVVDERLNVYGTTNVRVVDASVLPFQVCGHLVSTLYAVAERAADLIKADAGRR", "Relative Activity": "65.2%"}
{"molecule": "M342L + K354N: modified GLD: SEQ ID NO: 1 with substitutions M342L, K354N (protein, listed as Aspergillus terreus, SIGNAL (1)..(19)) MLGKLSFLSALSLAVAAPLSNSTSAKYDYIVIGGGTSGLAVANRLSEDPNVNVLILEAGGSVWNNPNVTNVDGYGLAFGSDIDWQYQSVNQPYGGNLSQVLRAGKALGGTSTINGMAYTRAEDVQIDAWETIGNTGWTWKNLFPYYRKSENFTVPTKSQTSLGASYEAGAHGHEGPLDVAFTQIESNNLTTYLNRTFQGMGLPWTEDVNGGKMRGFNLYPSTVNLEEYVREDAARAYYWPYKSRPNLHVLLNTFANRIVWDGEAHDGHITASGVEITSRNGTVRVINAEKEVIVSAGALKSPAILELSGIGNPSVLDKHNIPVKVNLPTVGENLQDQVNSHLDASGNTSISGTNAVSYPDVYDVFGDEAESVAKQIRANLKQYAADTAKANGNIMKAADLERLFEVQYDLIFKGRVPIAEVLNYPGSATSVFAEFWALLPFARGSVHIGSSNPAEFPVINPNYFMLDWDAKSYVAVAKYIRRSFESYPLSSIVKESTPGYDVIPRNASEQSWKEWVFDKNYRSNFHPVGTAAMMPREIGGVVDERLNVYGTTNVRVVDASVLPFQVCGHLVSTLYAVAERAADLIKADAGRR", "Relative Activity": "69.8%"}
{"molecule": "G426S + A578V: modified GLD: SEQ ID NO: 1 with substitutions G426S, A578V (protein, listed as Aspergillus terreus, SIGNAL (1)..(19)) MLGKLSFLSALSLAVAAPLSNSTSAKYDYIVIGGGTSGLAVANRLSEDPNVNVLILEAGGSVWNNPNVTNVDGYGLAFGSDIDWQYQSVNQPYGGNLSQVLRAGKALGGTSTINGMAYTRAEDVQIDAWETIGNTGWTWKNLFPYYRKSENFTVPTKSQTSLGASYEAGAHGHEGPLDVAFTQIESNNLTTYLNRTFQGMGLPWTEDVNGGKMRGFNLYPSTVNLEEYVREDAARAYYWPYKSRPNLHVLLNTFANRIVWDGEAHDGHITASGVEITSRNGTVRVINAEKEVIVSAGALKSPAILELSGIGNPSVLDKHNIPVKVNLPTVGENLQDQVNSHMDASGNTSISGTKAVSYPDVYDVFGDEAESVAKQIRANLKQYAADTAKANGNIMKAADLERLFEVQYDLIFKGRVPIAEVLNYPSSATSVFAEFWALLPFARGSVHIGSSNPAEFPVINPNYFMLDWDAKSYVAVAKYIRRSFESYPLSSIVKESTPGYDVIPRNASEQSWKEWVFDKNYRSNFHPVGTAAMMPREIGGVVDERLNVYGTTNVRVVDASVLPFQVCGHLVSTLYAVVERAADLIKADAGRR", "Relative Activity": "65.7%"}
{"molecule": "V431M: modified GLD: SEQ ID NO: 1 with substitution V431M (protein, listed as Aspergillus terreus, SIGNAL (1)..(19)) MLGKLSFLSALSLAVAAPLSNSTSAKYDYIVIGGGTSGLAVANRLSEDPNVNVLILEAGGSVWNNPNVTNVDGYGLAFGSDIDWQYQSVNQPYGGNLSQVLRAGKALGGTSTINGMAYTRAEDVQIDAWETIGNTGWTWKNLFPYYRKSENFTVPTKSQTSLGASYEAGAHGHEGPLDVAFTQIESNNLTTYLNRTFQGMGLPWTEDVNGGKMRGFNLYPSTVNLEEYVREDAARAYYWPYKSRPNLHVLLNTFANRIVWDGEAHDGHITASGVEITSRNGTVRVINAEKEVIVSAGALKSPAILELSGIGNPSVLDKHNIPVKVNLPTVGENLQDQVNSHMDASGNTSISGTKAVSYPDVYDVFGDEAESVAKQIRANLKQYAADTAKANGNIMKAADLERLFEVQYDLIFKGRVPIAEVLNYPGSATSMFAEFWALLPFARGSVHIGSSNPAEFPVINPNYFMLDWDAKSYVAVAKYIRRSFESYPLSSIVKESTPGYDVIPRNASEQSWKEWVFDKNYRSNFHPVGTAAMMPREIGGVVDERLNVYGTTNVRVVDASVLPFQVCGHLVSTLYAVAERAADLIKADAGRR", "Relative Activity": "44.8%"}
